Test results reported in paper PMC11853027.

biological target: LS174T cells; experiment: cell-binding assay, cell-bound Hoc detected by Western blot; details: After 1.5 h of incubation; parent: est. 1.0; read off a plot

Q: Which other: Ratio of Hoc/MUC2 does the source give for “Hoc protein of phage ΦPNJ-9 (wild type, recombinant) L184” here?
A: 0.5

Q: How did the other: Ratio of Hoc/MUC2 turn out when “Hoc protein of phage ΦPNJ-9 (wild type, recombinant) S183” was run?
A: 0.53

Q: “Hoc protein of phage ΦPNJ-9 (wild type, recombinant) T185” was tested. Which other: Ratio of Hoc/MUC2 did it give?
A: 0.47
